This is an account of results in the RNAGym collection of RNA variant scans (doi:10.1093/nar/gkz1192).

Sequences and labels used below:
B1: CPEB3 Ribozyme (parent)
chain: UAACAGGGGGCCACAGCAGAAGCGUUCACGUCGCAGCCCCUGUCAGAUUCUGGUGAAUCUGCGAAUUCUGCUGUAUAUCUC

The variants in this data set derive from B1. Put plainly: self-cleavage, relative activity (ratio to wild type); higher = more cleavage; in vitro, sequencing. In a few lines: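 For each CPEB3 ribozyme variant, relative activity is its cleaved/total read fraction divided by the unmutated ribozyme's. Barcoded error-prone PCR libraries were transcribed by T7 RNA polymerase (5 hours, 37°C) and held in DNase I for 15 min before an EDTA stop, with cleavage occurring throughout. Template-switching reverse transcription and Illumina sequencing were used to read the RNAs. A 5-read minimum applied, and results are the mean of three batches.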
As for UAACAGGGGGCCGCAGCAGAAGCGUUCACGUCGCAGACCCUGUCAGAUUCUGGUGAAUCUGCGAAUUCUGCUGUAUAUCUC, the self-cleavage turned out to be 0.18.
The result for UAACAGGGGGCCGCAGCAGAAGCGUUCACGUCGCAGUCCCUGUCAGAUUCUGGUGAAUCUGCGAAUUCUGCUGUAUAUCUC reads 0.53; that for UAACAGGGGGCCGCUGCAGAAGCGUUCACGUCGCAGCCCCUGUCAGAUUCUGGUGAAUCUGCGAAUUCUGCUGUAUAUCUC, 0.43; that for UAACAGGGGGCCGCGGCAGAAGCGUUCACGUCGCAGCCCCUGUCAGAUUCUGGUGAAUCUGCGAAUUCUGCUGUAUAUCUC, 0.35.
The same measure for UAACAGGGGGCCGUAGCAGAAGCGUUCACGUCGCAGCCCCUGUCAGAUUCUGGUGAAUCUGCGAAUUCUGCUGUAUAUCUC: 0.78; for UAACAGGGGGCCGAAGCAGAAGCGUUCACGUCGCAGCCCCUGUCAGAUUCUGGUGAAUCUGCGAAUUCUGCUGUAUAUCUC: 0.88.
The same measure for UAACAGGGGGCCGCAGCAGAAGGGUUCACGUCGCAGCCCCUGUCAGAUUCUGGUGAAUCUGCGAAUUCUGCUGUAUAUCUC: 0.46.
For the variant UAACAGGGGGCCGCAGCAGAAGUGUUCACGUCGCAGCCCCUGUCAGAUUCUGGUGAAUCUGCGAAUUCUGCUGUAUAUCUC, the self-cleavage amounted to 0.36.
The result for UAACAGGGGGCCGCAGCAGAAGCGUUCCCGUCGCAGCCCCUGUCAGAUUCUGGUGAAUCUGCGAAUUCUGCUGUAUAUCUC reads 0.43.
The same measure for UAACAGGGGGCCGCAGCAGAAGCGUUCGCGUCGCAGCCCCUGUCAGAUUCUGGUGAAUCUGCGAAUUCUGCUGUAUAUCUC: 0.39.
The same measure for UAACAGGGGGCCGCAGCAGAAGCGUUCUCGUCGCAGCCCCUGUCAGAUUCUGGUGAAUCUGCGAAUUCUGCUGUAUAUCUC: 0.54; for UAACAGGGGGCCGCAGCAGAAGCGUUCACGUCGUAGCCCCUGUCAGAUUCUGGUGAAUCUGCGAAUUCUGCUGUAUAUCUC: 0.32.
In the case of UAACAGGGGGCCGCAGCAGAAGCGUUCACGUCGGAGCCCCUGUCAGAUUCUGGUGAAUCUGCGAAUUCUGCUGUAUAUCUC, the self-cleavage was found to be 0.17.
The same measure for UAACAGGGGGCCGCAGCUGAAGCGUUCACGUCGCAGCCCCUGUCAGAUUCUGGUGAAUCUGCGAAUUCUGCUGUAUAUCUC: 0.27; for UAACAGGGGGCCGCAGCGGAAGCGUUCACGUCGCAGCCCCUGUCAGAUUCUGGUGAAUCUGCGAAUUCUGCUGUAUAUCUC: 0.39; for UAACAGGGGGCCGCAGCAGAAGCGUUCACGUCGCAGCCCCUGUCAGAUUCUGGUGACUCUGCGAAUUCUGCUGUAUAUCUC: 0.33.
The same measure for UAACAGGGGGCCGCAGCAGAAGCGUUCACGUCGCAGCCCCUGUCAGAUUCUGGUGAGUCUGCGAAUUCUGCUGUAUAUCUC: 0.72.
UAACAGGGGGCCGCAGCAGAAGCGUUCACGUCGCAGCCCCUGUCAGAUUCUGGUGAUUCUGCGAAUUCUGCUGUAUAUCUC: the self-cleavage is 0.45.
Turning to UAACAGGGGGCCGCAGCAGAAGCGUUCAUGUCGCAGCCCCUGUCAGAUUCUGGUGAAUCUGCGAAUUCUGCUGUAUAUCUC, the self-cleavage was found to be 0.33.
The same measure for UAACAGGGGGCCGCAGCAGAAGCGUUCAAGUCGCAGCCCCUGUCAGAUUCUGGUGAAUCUGCGAAUUCUGCUGUAUAUCUC: 0.3; for UAACAGGGGGCCGCAGCAGAAGCGUUCAGGUCGCAGCCCCUGUCAGAUUCUGGUGAAUCUGCGAAUUCUGCUGUAUAUCUC: 0.11; for UAACAGGGGGCCGCAGCAGAAGCGUUCACGUCGCAGCCCCUGUCGGAUUCUGGUGAAUCUGCGAAUUCUGCUGUAUAUCUC: 0.67.
The same measure for UAACAGGGGGCCGCAGCAGAAGCGUUCACGUCGCAGCCCCUGUCCGAUUCUGGUGAAUCUGCGAAUUCUGCUGUAUAUCUC: 0.34.
The same measure for UAACAGGGGGCCGCAGCAGAAGCGUUCACGUCGCAGCCCCUGUCUGAUUCUGGUGAAUCUGCGAAUUCUGCUGUAUAUCUC: 0.4; for UAACAGGGGGCCGCAGCAGAAGCGUUCACGUCGCAGCACCUGUCAGAUUCUGGUGAAUCUGCGAAUUCUGCUGUAUAUCUC: 0.13; for UAACAGGGGGCCGCAGCAGAAGCGUUCACGUCGCAGCUCCUGUCAGAUUCUGGUGAAUCUGCGAAUUCUGCUGUAUAUCUC: 0.83.
Consider UAACAGGGGGCCGCAGCAGAAGCGUUCACGUCGCAGCGCCUGUCAGAUUCUGGUGAAUCUGCGAAUUCUGCUGUAUAUCUC, for which the self-cleavage turned out to be 0.28.
The result for UAACAGGGGGCCGCAGCAGAAGCGUUCACGUCGCAGCCCCUGUCAGAUUCUGGUGAAUCUGCGAAUUCUGCUGUAUCUCUC reads 0.62.
The result for UAACAGGGGGCCGCAGCAGAAGCGUUCACGUCGCAGCCCCUGUCAGAUUCUGGUGAAUCUGCGAAUUCUGCUGUAUGUCUC reads 0.69; that for UAACAGGGGGCCGCAGCAGAAGCGUUCACGUCGCAGCCCCUGUCAGAUUCUGGUGAAUCUGCGAAUUCUGCUGUAUUUCUC, 0.92; that for UAACAGGGGGCCGCAGCAGAAGCGUUCACGUCGCAGCCCCUGUCAGAUUCUGGUGAAUCUGCGAAUUCUGCUGUUUAUCUC, 0.99.
Regarding UAACAGGGGGCCGCAGCAGAAGCGUUCACGUCGCAGCCCCUGUCAGAUUCUGGUGAAUCUGCGAAUUCUGCUGUGUAUCUC, the self-cleavage was found to be 1.03.
Consider UAACAGGGGGCCGCAGCAGAAGCGUUCACGUCGCAGCCCCUGUCAGAUUCUGGUGAAUCUGCGAAUUCUGCUGUCUAUCUC, for which the self-cleavage stood at 1.03.
The same measure for UAACAGGGGGCCGCAGCAGAAGCGUUCACGUCGCAGCCCCUGUCAGGUUCUGGUGAAUCUGCGAAUUCUGCUGUAUAUCUC: 0.86.
